Measured values from the supplement of paper PMC10126150.
± gives the standard deviation of the averaged measurements.

system: ATP; test: switch fluorescence ratio, 500 uM ATP over buffer (Cy3 cluster intensity, sum of 5 cycles each) (fold (ratio)); higher = stronger signal-on switching upon ATP binding; sequences stand for … in TCGTCGGCAGCGTCAGATGTGTATAAGAGACAGTTTTTTTTTTTTTTTTTTTTTTTTT…TC; conditions: aptamer strand: ATP DNA aptamer (quencher-CACCTGGGGGAGTATTGCGGAGGAAGG + anchor), 100 nM annealed; ATP concentration: 500 uM
In short: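 The fluorescence ratio divides summed target-cycle Cy3 intensity by summed buffer-cycle Cy3 intensity for each cluster and is averaged per switch-domain sequence. Cy3-labelled switching-strand clusters on a modified Illumina MiSeq flow-cell were annealed to 100 nM quencher-labelled ATP aptamer, then imaged in selection buffer and again after 15 min with 500 uM ATP at 22 °C. Five such cycles were run, with NaOH stripping and re-annealing between them, and clusters outside 100-1000 RFU were excluded.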
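Also: ATP exposure 15 min at 22 °C before imaging.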

Sequence | switch fluorescence ratio
TGGATGAATT | 0.9981 ± 0.0045
GATCCACGTG | 1.03 ± 0.015
ACCAGATCAC | 1.04 ± 0.019
CCTGAAACCT | 1.51 ± 0.48
AAAGGCCGT | 1.016 ± 0.0077
ACTATGCGGG | 0.982 ± 0.017
CGGTTTTTTT | 0.978 ± 0.016
AAGGAGGGTG | 1.02 ± 0.019
GGATATGTGT | 0.991 ± 0.016
ACAGTCATGG | 1.021 ± 0.0092
TGTTGGGGCG | 1.02 ± 0.069
ATGGATTCTG | 1.07 ± 0.091
GGTCAGTGAT | 1.01 ± 0.06
CCGTATGGAG | 0.9959 ± 0.002
AAGGGAGAAC | 0.986 ± 0.0019
AGGCGGTATC | 1.047 ± 0.0025
CGGTTAAAGC | 0.94 ± 0.014
AATATCTCAC | 1.022 ± 0.0087
GGGTCAGAAA | 1.04 ± 0.11
GGGCAACTTT | 0.997 ± 0.049
GATACACATG | 1.04 ± 0.021
GAGTCTGTCC | 1.019 ± 0.0035
TTGTGTTGCG | 1.03 ± 0.051
AGTTGGGGAA | 0.983 ± 0.031
CAGTTCTGTA | 1.01 ± 0.038

Sequence | switch fluorescence ratio
GAAAAATTGG | 1.03 ± 0.03
TATACTTAGT | 1.025 ± 0.0036
ATAGTTACGC | 1.03 ± 0.022
TGGACTACGC | 1.06 ± 0.012
TAGTCTTAGG | 0.973 ± 0.049
AGGTAATAGC | 1.05 ± 0.0078
TTTTTGAAGG | 0.992 ± 0.024
GAGATTGGAG | 0.9892 ± 0.0044
CAACCGGCCA | 1.11 ± 0.027
CATGAGGTTC | 0.974 ± 0.03
ATGGAGGGTA | 0.99 ± 0.016
AATAGTGGCA | 1.02 ± 0.044
TTACCGACGG | 1.1 ± 0.069
CGTTAGTGCG | 1 ± 0.025
GTTATAGCGT | 0.963 ± 0.026
TTTGAGTGCT | 0.997 ± 0.029
TCAGGGTTGG | 0.978 ± 0.024
GATAAGTTGG | 0.935 ± 0.09
GCTGGGATTG | 1.01 ± 0.035
CTTATGAGCA | 1.038 ± 0.0023
AAAGGCCTTA | 1.01 ± 0.045
GTGGGAGCGT | 0.97882 ± 0.00039
TTATTAGTAT | 1.02 ± 0.016
GGGTTTGCAT | 1.02 ± 0.034
TTTTAGTTGT | 0.994 ± 0.032

Sequence | switch fluorescence ratio
TTGGGGTCTT | 1.02 ± 0.043
AGTTAGGAAA | 1.02 ± 0.032
AGGTAGAGAG | 0.992 ± 0.038
CAGGCTCTTT | 0.978 ± 0.036
CAAAAGTTGG | 0.9923 ± 0.0052
TTTAGTGAAC | 1.025 ± 0.0089
CTAGGGAGGT | 0.9701 ± 0.002
TAGGGCACA | 1.1 ± 0.057
TTATTCGATT | 0.982 ± 0.019
CAATGGATTT | 1.026 ± 0.007
TTTTTTATAA | 1.01 ± 0.023
GGATTACAGT | 0.997 ± 0.014
ACACATCCGG | 1.06 ± 0.015
GTTGAGCGGG | 0.9786 ± 0.0069
GACGGTGGCT | 1.01 ± 0.023
TAAGCTGGCG | 1.06 ± 0.14
ATCTGAGAGG | 1.003 ± 0.0031
TGTCCGGGCT | 0.999 ± 0.028
GCGGTGGGTG | 0.994 ± 0.023
GGGATGGGGT | 0.988 ± 0.029
GTCGTGGCAA | 1.04 ± 0.022
TGTGGGGCTG | 1.02 ± 0.08
AAGCGTCTCA | 0.997 ± 0.011
ATGTGCAATA | 1.94 ± 0.082
CGTACAGTGG | 1.02 ± 0.046

Sequence | switch fluorescence ratio
CGGTTAATTT | 1.01 ± 0.027
TACGAACTAT | 1.33 ± 0.052
ATTTGAAGAG | 1.01 ± 0.014
TTAGATATTT | 0.98 ± 0.024
CAGCTCTGTT | 0.984 ± 0.041
TATGCGTTTT | 0.98 ± 0.013
GTGATTCAGG | 0.989 ± 0.029
GGGTTTTAAG | 1 ± 0.021
CTAGCCAATT | 1.02 ± 0.016
AAAAGAAAAG | 1.01 ± 0.051
GGTTCGGGGT | 0.982 ± 0.012
GTTGAATCTG | 1.26 ± 0.36
AACAGGGGAG | 1.03 ± 0.03
TACATAGGTT | 1.048 ± 0.006
CGCGCCTGTG | 1.17 ± 0.23
AGGAAAAAAG | 1 ± 0.032
GATTTCAAAC | 0.9817 ± 0.0045
AGGGTGGTTT | 0.997 ± 0.02
TTTTACAAGA | 0.996 ± 0.043
GCATGAGTGC | 1.07 ± 0.061
TGGCCGTCAT | 0.98 ± 0.032
GGAGTACTGT | 1.02 ± 0.013
ACATGGGGGG | 0.993 ± 0.038
CGGGGTTTTT | 1.03 ± 0.12
GTAGTCATTT | 0.992 ± 0.022

Sequence | switch fluorescence ratio
AGTGCGTGGG | 1.002 ± 0.0061
TCTGGCCGGC | 0.986 ± 0.028
TGGGTGGTGT | 1.016 ± 0.0034
TTTGCACATT | 1.02 ± 0.069
GCTGGCAATT | 1.027 ± 0.0069
GGTTTGTTTG | 0.999 ± 0.025
CGGGGGGAGA | 1.03 ± 0.061
ACGTGCCGCA | 1.079 ± 0.0088
GGCAATATGT | 1.24 ± 0.077
TAGAGAGGGA | 1.04 ± 0.096
AAGGTCTTTG | 1.01 ± 0.043
CGGGTGGCAG | 1.01 ± 0.061
CGGGGTGCAC | 1.05 ± 0.023
GATAATAAGT | 1.01 ± 0.016
GAACCAGTAC | 1.82 ± 0.032
AGGGGTAGCG | 0.9539 ± 0.0073
ATCAGGTACG | 1.02 ± 0.033
GCGGGGGGTT | 1.01 ± 0.038
TTGCATTTTT | 1.01 ± 0.034
TTGCCTTTTT | 0.998 ± 0.028
CGGTGGTCCA | 0.997 ± 0.017
AGAAATTCAT | 0.992 ± 0.029
GATGTATAGA | 1.01 ± 0.022
ACGATAGTTA | 0.992 ± 0.01
AAGGAAGCCG | 1.06 ± 0.044

Sequence | switch fluorescence ratio
CCATGAACAT | 1 ± 0.028
GACTAGAGGG | 0.99 ± 0.034
CGTCGCAGTG | 1.03 ± 0.052
ATGTTCGTAG | 0.989 ± 0.015
GCGTTACGGT | 1.02 ± 0.0057
ATTCTTCGC | 1.06 ± 0.011
TTTGGAGACT | 1.03 ± 0.02
GAACGTACAA | 1.587 ± 0.015
TTTTTTGAGT | 1 ± 0.023
TTCGAAACGA | 1.1 ± 0.14
GGTTCTGGGC | 0.9601 ± 0.0026
AAAAGAAGCA | 0.948 ± 0.026
TGCGGTAAGG | 1 ± 0.031
GCCGAGCCGG | 0.972 ± 0.011
TTAAGTACGA | 1.27 ± 0.041
CAGTGTTA | 0.985 ± 0.064
ATGGTGAAGG | 1.01 ± 0.066
ATTGTAGGGA | 1 ± 0.015
AGATTTAGAG | 1.011 ± 0.0032
TGCATGGGAG | 1.001 ± 0.0039
GACAGGGTTG | 1.001 ± 0.0062
AAATTGCGGC | 0.975 ± 0.012
ACCGGTTATA | 1.03 ± 0.038
TCTCTGTGTT | 1.027 ± 0.0019
AGATAGATTG | 1 ± 0.04

Sequence | switch fluorescence ratio
AGAATTCCGT | 0.992 ± 0.01
GTCCTTTTTT | 0.97 ± 0.039
GTCAATTGGA | 0.992 ± 0.013
ATTGGTAGTT | 0.9687 ± 0.0067
ATGCATTAAT | 0.997 ± 0.015
TTGGATGCGG | 1.0022 ± 0.00011
GGCTGAACGT | 1 ± 0.012
TACGAGCCAC | 1.31 ± 0.032
AAAAGAATCG | 0.996 ± 0.049
ACTCACTGGT | 1.23 ± 0.043
TTTTTACGTG | 0.969 ± 0.035
GGACCAGGGT | 1.04 ± 0.0071
GGGAAAGATT | 1.005 ± 0.01
CCTCACCCTT | 1.13 ± 0.013
AGTTGTGTGG | 1.02 ± 0.023
GCTATTGTTG | 1.03 ± 0.021
GATTTTGTTG | 0.979 ± 0.014
CATTAGGATG | 0.9941 ± 0.0021
TGTTTAAATG | 1.01 ± 0.026
GATCTGTCAG | 1.01 ± 0.021
TCGGCGGTCT | 0.999 ± 0.025
TAGTTTTGAA | 0.997 ± 0.072
AAGTAATGGG | 0.961 ± 0.041
TCGTTATTAA | 1 ± 0.012
ATGTTTCGGT | 0.9918 ± 0.0073

Sequence | switch fluorescence ratio
CAGTTTACCG | 1.03 ± 0.019
GCGGAGAGAG | 0.998 ± 0.019
ACACATCGGA | 1.005 ± 0.0057
AGCTCTGGCC | 0.961 ± 0.04
ACTTTATCTT | 1.063 ± 0.01
AGGTAGTTTA | 1.02 ± 0.045
TTGCGAATGT | 0.997 ± 0.038
TAAGATCGGC | 0.974 ± 0.017
AAGCCGTAGG | 0.991 ± 0.044
GAGCATGGGA | 1.02 ± 0.012
TGATGGGGCT | 0.975 ± 0.038
TTAACATGTG | 0.9593 ± 0.0034
GGGGCTTGTA | 1 ± 0.016
GCTGTGTTTT | 1 ± 0.034
GTTGGGGGCC | 0.997 ± 0.013
ATGAGGCACG | 1.05 ± 0.068
AAGGTGTTTT | 1.08 ± 0.016
ACCAGCCGGG | 1.09 ± 0.062
TGCAAAGGGC | 1.01 ± 0.015
GGGTTGAGCG | 1.02 ± 0.012
AAAATGGATT | 0.995 ± 0.055
AATGGAGGGT | 1.03 ± 0.055
GCTGCAGGGG | 1.144 ± 0.0063
ACTTAGGGGA | 1.02 ± 0.036
GGGGTTTGAG | 1.001 ± 0.0057
